B1: Ly488 (bispecific antibody, human IgG1, kappa)
heavy: EVQLVESGGGLVKPGGSLKLSCAASGFTFSDSGMHWVRQAPEKGLEWITYINSGSSTIYYADSVKGRFTISRDNAKNTLFLQMTSLRSEDTAMYYCARGRGYAMDYWGQGTSVTVSSASTKGPSVFPLAPSSKSTSGGTAALGCLVKDYFPEPVTVSWNSGALTSGVHTFPAVLQSSGLYSLSSVVTVPSSSLGTQTYICNVNHKPSNTKVDKKVEPKSCDKTHTCPPCPAPELLGPSVFLFPPKPKDTLMISRTPEVTCVVVDVSHEDPEVKFNWYVDGVEVHNAKTKPREEQYNSTYRVVSVLTVLHQDWLNGKEYKCKVSNKALPAPIEKTISKAKGQPREPQVYTLPPSREEMTKNQVSLTCLVKGFYPSDIAVEWESNGQPENNYKTTPPVLDSDGSFFLYSKLTVDKSRWQQGNVFSCSVMHEALHNHYTQKSLSLSPGK
light: EIVLTQSPTTMAASPGEKITIFCSASSSISSDFLHWYQQKPGFSPKLLIYRISNLASGVPARFSGSGSGTSYSLTIGTMEAEDVATYYCQQGSNVPRTFGGGTKLEIKRTVAAPSVFIFPPSDEQLKSGTASVVCLLNNFYPREAKVQWKVDNALQSGNSQESVTEQDSKDSTYSLSSTLTLSKADYEKHKVYACEVTHQGLSSPVTKSFNRGECGGGGSGGGGSGGGGSGGGGSDIQMTQSPSSLSASVGDRVTITCKASQNIYIYLNWYQQKPGKAPKLLIYNTNNLQTGVPSRFSGSGSGTDFTLTISSLQPEDFATYYCLQHSSRRTFGGGTKVEIKGGGGSGGGGSGGGGSGGGGSQVQLVESGGGLVQPGGSLKLSCATSGFNFNDYFMNWVRQASGKGLEWVGQIRNKNYNYATYYTESLEGRVTISRDDSKNTAYLQMNSLKTEDTAVYYCTSYYYDGFADYFDYWGQGTTVTVSS
notes: Ly366 HC (IgG1 mutated Fc) + Ly366 LC-TM740 scFv VL-VH
B2: Ly492 (bispecific antibody, human IgG1, kappa)
heavy: B1 heavy
light: EIVLTQSPTTMAASPGEKITIFCSASSSISSDFLHWYQQKPGFSPKLLIYRISNLASGVPARFSGSGSGTSYSLTIGTMEAEDVATYYCQQGSNVPRTFGGGTKLEIKRTVAAPSVFIFPPSDEQLKSGTASVVCLLNNFYPREAKVQWKVDNALQSGNSQESVTEQDSKDSTYSLSSTLTLSKADYEKHKVYACEVTHQGLSSPVTKSFNRGECGGGGSGGGGSGGGGSGGGGSDIQMTQSPSSLSASVGDRVTITCLASEDISNDLAWYQQKPGKAPKLLIYFVDRLLDGVPSRFSGSGSGTDFTLTISSLQPEDFATYYCQQSYKYPPTFGQGTKLEIKGGGGSGGGGSGGGGSGGGGSEVQLVESGGGLVQPGGSLRLSCAASGFTFTNYGLHWVRQAPGKGLEWVSSISPSGGVTYYRDSVKGRFTISRDNSKNTLYLQMNSLRAEDTAVYYCAKPFLGWGGANWIAHWGQGTLVTVSS
notes: Ly366 HC (IgG1 mutated Fc) + Ly366 LC-TM559 scFv VL-VH
B3: Ly493 (bispecific antibody, human IgG1, kappa)
heavy: B1 heavy
light: EIVLTQSPTTMAASPGEKITIFCSASSSISSDFLHWYQQKPGFSPKLLIYRISNLASGVPARFSGSGSGTSYSLTIGTMEAEDVATYYCQQGSNVPRTFGGGTKLEIKRTVAAPSVFIFPPSDEQLKSGTASVVCLLNNFYPREAKVQWKVDNALQSGNSQESVTEQDSKDSTYSLSSTLTLSKADYEKHKVYACEVTHQGLSSPVTKSFNRGECGGGGSGGGGSGGGGSGGGGSEVQLVESGGGLVQPGGSLRLSCAASGFTFTNYGLHWVRQAPGKGLEWVSSISPSGGVTYYRDSVKGRFTISRDNSKNTLYLQMNSLRAEDTAVYYCAKPFLGWGGANWIAHWGQGTLVTVSSGGGGSGGGGSGGGGSGGGGSDIQMTQSPSSLSASVGDRVTITCLASEDISNDLAWYQQKPGKAPKLLIYFVDRLLDGVPSRFSGSGSGTDFTLTISSLQPEDFATYYCQQSYKYPPTFGQGTKLEIK
notes: Ly366 HC (IgG1 mutated Fc) + Ly366 LC-TM559 scFv VH-VL
B4: Ly497 (bispecific antibody, human IgG1, kappa)
heavy: B1 heavy
light: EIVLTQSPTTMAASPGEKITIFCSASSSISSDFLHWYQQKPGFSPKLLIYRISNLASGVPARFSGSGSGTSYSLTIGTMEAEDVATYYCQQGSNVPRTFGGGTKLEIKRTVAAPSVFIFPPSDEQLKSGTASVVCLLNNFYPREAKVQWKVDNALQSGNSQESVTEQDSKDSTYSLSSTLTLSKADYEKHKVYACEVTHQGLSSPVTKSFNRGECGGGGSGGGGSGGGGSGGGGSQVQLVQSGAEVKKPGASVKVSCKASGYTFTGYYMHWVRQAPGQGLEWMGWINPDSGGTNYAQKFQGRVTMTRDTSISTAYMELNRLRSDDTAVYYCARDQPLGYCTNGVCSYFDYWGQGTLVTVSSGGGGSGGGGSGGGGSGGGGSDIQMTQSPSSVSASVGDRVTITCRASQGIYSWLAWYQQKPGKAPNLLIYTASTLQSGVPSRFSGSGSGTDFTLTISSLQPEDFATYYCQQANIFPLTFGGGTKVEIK
notes: Ly366 HC (IgG1 mutated Fc) + Ly366 LC-Ly253 scFv VH-VL
B5: Ly496 (bispecific antibody, human IgG1, kappa)
heavy: B1 heavy
light: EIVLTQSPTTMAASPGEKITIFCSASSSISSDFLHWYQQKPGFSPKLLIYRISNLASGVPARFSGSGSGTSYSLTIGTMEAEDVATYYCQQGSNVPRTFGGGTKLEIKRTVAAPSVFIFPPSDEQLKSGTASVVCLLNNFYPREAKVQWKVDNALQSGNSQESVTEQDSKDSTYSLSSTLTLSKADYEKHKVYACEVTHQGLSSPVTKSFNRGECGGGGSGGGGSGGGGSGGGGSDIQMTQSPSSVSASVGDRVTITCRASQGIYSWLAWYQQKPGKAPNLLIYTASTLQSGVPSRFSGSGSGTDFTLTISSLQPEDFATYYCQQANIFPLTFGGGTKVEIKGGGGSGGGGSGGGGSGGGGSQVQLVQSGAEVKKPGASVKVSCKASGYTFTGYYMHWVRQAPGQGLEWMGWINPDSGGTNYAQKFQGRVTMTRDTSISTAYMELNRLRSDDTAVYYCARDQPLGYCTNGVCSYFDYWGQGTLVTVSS
notes: Ly366 HC (IgG1 mutated Fc) + Ly366 LC-Ly253 scFv VL-VH
B6: Ly489 (bispecific antibody, human IgG1, kappa)
heavy: B1 heavy
light: EIVLTQSPTTMAASPGEKITIFCSASSSISSDFLHWYQQKPGFSPKLLIYRISNLASGVPARFSGSGSGTSYSLTIGTMEAEDVATYYCQQGSNVPRTFGGGTKLEIKRTVAAPSVFIFPPSDEQLKSGTASVVCLLNNFYPREAKVQWKVDNALQSGNSQESVTEQDSKDSTYSLSSTLTLSKADYEKHKVYACEVTHQGLSSPVTKSFNRGECGGGGSGGGGSGGGGSGGGGSQVQLVESGGGLVQPGGSLKLSCATSGFNFNDYFMNWVRQASGKGLEWVGQIRNKNYNYATYYTESLEGRVTISRDDSKNTAYLQMNSLKTEDTAVYYCTSYYYDGFADYFDYWGQGTTVTVSSGGGGSGGGGSGGGGSGGGGSDIQMTQSPSSLSASVGDRVTITCKASQNIYIYLNWYQQKPGKAPKLLIYNTNNLQTGVPSRFSGSGSGTDFTLTISSLQPEDFATYYCLQHSSRRTFGGGTKVEIK
notes: Ly366 HC (IgG1 mutated Fc) + Ly366 LC-TM740 scFv VH-VL
B7: Ly486 (bispecific antibody, human IgG1, kappa)
heavy: EVQLVESGGGLVKPGGSLKLSCAASGFTFSDSGMHWVRQAPEKGLEWITYINSGSSTIYYADSVKGRFTISRDNAKNTLFLQMTSLRSEDTAMYYCARGRGYAMDYWGQGTSVTVSSASTKGPSVFPLAPSSKSTSGGTAALGCLVKDYFPEPVTVSWNSGALTSGVHTFPAVLQSSGLYSLSSVVTVPSSSLGTQTYICNVNHKPSNTKVDKKVEPKSCDKTHTCPPCPAPELLGPSVFLFPPKPKDTLMISRTPEVTCVVVDVSHEDPEVKFNWYVDGVEVHNAKTKPREEQYNSTYRVVSVLTVLHQDWLNGKEYKCKVSNKALPAPIEKTISKAKGQPREPQVYTLPPSREEMTKNQVSLTCLVKGFYPSDIAVEWESNGQPENNYKTTPPVLDSDGSFFLYSKLTVDKSRWQQGNVFSCSVMHEALHNHYTQKSLSLSPGGGGGSGGGGSGGGGSGGGGSDIQMTQSPSSLSASVGDRVTITCKASQNIYIYLNWYQQKPGKAPKLLIYNTNNLQTGVPSRFSGSGSGTDFTLTISSLQPEDFATYYCLQHSSRRTFGGGTKVEIKGGGGSGGGGSGGGGSGGGGSQVQLVESGGGLVQPGGSLKLSCATSGFNFNDYFMNWVRQASGKGLEWVGQIRNKNYNYATYYTESLEGRVTISRDDSKNTAYLQMNSLKTEDTAVYYCTSYYYDGFADYFDYWGQGTTVTVSS
light: EIVLTQSPTTMAASPGEKITIFCSASSSISSDFLHWYQQKPGFSPKLLIYRISNLASGVPARFSGSGSGTSYSLTIGTMEAEDVATYYCQQGSNVPRTFGGGTKLEIKRTVAAPSVFIFPPSDEQLKSGTASVVCLLNNFYPREAKVQWKVDNALQSGNSQESVTEQDSKDSTYSLSSTLTLSKADYEKHKVYACEVTHQGLSSPVTKSFNRGEC
notes: Ly366 HC (IgG1 mutated Fc)-TM740 scFv VL-VH + Ly366 LC
B8: Ly474 (bispecific antibody, human IgG1, kappa)
heavy: EVQLVESGGDLVKPGGSLKLSCAASGFTFSSYGMSWVRQTPDKRLEWVAAISTGGSYTYYPDSVKGRFTISRDTATNTLYLQMSTLKSEDTAMYYCTRRGATGSWFAYWGQGTLVTVSAASTKGPSVFPLAPSSKSTSGGTAALGCLVKDYFPEPVTVSWNSGALTSGVHTFPAVLQSSGLYSLSSVVTVPSSSLGTQTYICNVNHKPSNTKVDKKVEPKSCDKTHTCPPCPAPELLGPSVFLFPPKPKDTLMISRTPEVTCVVVDVSHEDPEVKFNWYVDGVEVHNAKTKPREEQYNSTYRVVSVLTVLHQDWLNGKEYKCKVSNKALPAPIEKTISKAKGQPREPQVYTLPPSREEMTKNQVSLTCLVKGFYPSDIAVEWESNGQPENNYKTTPPVLDSDGSFFLYSKLTVDKSRWQQGNVFSCSVMHEALHNHYTQKSLSLSPGGGGGSGGGGSGGGGSGGGGSDIQMTQSPSSLSASVGDRVTITCKASQNIYIYLNWYQQKPGKAPKLLIYNTNNLQTGVPSRFSGSGSGTDFTLTISSLQPEDFATYYCLQHSSRRTFGGGTKVEIKGGGGSGGGGSGGGGSGGGGSQVQLVESGGGLVQPGGSLKLSCATSGFNFNDYFMNWVRQASGKGLEWVGQIRNKNYNYATYYTESLEGRVTISRDDSKNTAYLQMNSLKTEDTAVYYCTSYYYDGFADYFDYWGQGTTVTVSS
light: DILMTQSPSSMSVSLGDTVSITCHASQGINNNIGWLQRKPGKSFKGLIYHGTNLEDGVPSRFSGSGSGADYSLTISSLESEDFADYYCVQYVQFPRTFGGGTKLEIKRTVAAPSVFIFPPSDEQLKSGTASVVCLLNNFYPREAKVQWKVDNALQSGNSQESVTEQDSKDSTYSLSSTLTLSKADYEKHKVYACEVTHQGLSSPVTKSFNRGEC
notes: Ly361 HC (IgG1 mutated Fc)-TM740 scFv VL-VH + Ly361 LC
B9: Ly366 (chimeric) (antibody, human IgG1, kappa, V domains shown)
VH: EVQLVESGGGLVKPGGSLKLSCAASGFTFSDSGMHWVRQAPEKGLEWITYINSGSSTIYYADSVKGRFTISRDNAKNTLFLQMTSLRSEDTAMYYCARGRGYAMDYWGQGTSVTVSS
VL: EIVLTQSPTTMAASPGEKITIFCSASSSISSDFLHWYQQKPGFSPKLLIYRISNLASGVPARFSGSGSGTSYSLTIGTMEAEDVATYYCQQGSNVPRTFGGGTKLEIKR
notes: chimeric, human IgG1 constant region; also called hybridoma 25F3

target: T1, human CD40 expressed on CHO cells (human, UniProt P25942 21-277); experiment: FACS, CHO cells
T1 construct: whole, on cells; also used for the reporter cells over-expressing human CD40; also called cellular CD40; CHO-CD40 cells
T1 sequence (P25942 21-277): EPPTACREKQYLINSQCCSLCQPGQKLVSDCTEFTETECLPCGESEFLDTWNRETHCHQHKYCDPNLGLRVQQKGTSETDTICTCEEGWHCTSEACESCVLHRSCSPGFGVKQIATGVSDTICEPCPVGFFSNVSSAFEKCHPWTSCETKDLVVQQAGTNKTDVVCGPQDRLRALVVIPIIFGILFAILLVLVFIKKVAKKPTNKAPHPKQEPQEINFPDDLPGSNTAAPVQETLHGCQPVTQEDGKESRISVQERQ

Binding result, binds:
B1
B2
B3
B4
B5
B6
B7
B8

target: T2, human B7H4 expressed on CHO cells (human, UniProt Q7Z7D3 25-282); experiment: FACS, CHO cells
T2 construct: whole, on cells; also called VCTN1
T2 sequence (looked up): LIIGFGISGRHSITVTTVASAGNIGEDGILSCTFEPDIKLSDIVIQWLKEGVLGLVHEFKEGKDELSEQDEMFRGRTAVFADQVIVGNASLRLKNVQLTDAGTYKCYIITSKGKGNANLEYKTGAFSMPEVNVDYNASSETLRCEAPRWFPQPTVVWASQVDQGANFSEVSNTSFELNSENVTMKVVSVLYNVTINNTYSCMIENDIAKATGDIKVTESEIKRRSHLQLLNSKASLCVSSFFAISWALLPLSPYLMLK

Binding result, binds:
B1
B2
B3
B4
B5
B6
B9
B7
B8

From patent US20220372155A1 (LYVGEN BIOPHARMA, published 2022)
